Experiment: yeast display, Sf9 membrane polyspecificity reagent, FACS + sequencing; frameworks hold sequencing errors
Procedure, shortened: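 A synthetic nanobody library was expressed on Saccharomyces cerevisiae BJ5465 by galactose induction for 36–48 hours. The library was stained for 1 hour at 4 °C with 10% biotinylated, detergent-solubilized Sf9 membrane reagent and enriched with streptavidin microbeads before FACS. Low and high (top ~1%) gates were set on anti-HA fluorescence for expression and streptavidin fluorescence for reagent binding, and each polyreactivity label reflects the gate of origin.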

Sequence	polyreactivity (PSR sort gate)
QVQLVESGGGLVQAGGSLRLSCAASGRTFYYYAMGGYRQAPGKERELVAAISKSATRTYYADSVKGRFTISRDNAKNTVYLQMNSLKPEDTAVYYCATGQYLRTSRYYYWGQGTQVTVSS	high polyreactivity
QVQLVESGGGLVQAGGSLRLSCAASGRIFTTYAMGWYRQAPGKERELVAAISRSGGSTYYADSVKGRFTISRDNAKNTVYLQMNSLKTEDTAVYYCAAVPTSNSFRSSFYYWGQGTQVTVSS	high polyreactivity
QVQLVESGGGLVQAGGSLRLSCAASGRTFWGNAMGWYRQAPGKERELVASISSRGSSTYYADSVKGRFTISRDNAKNTVYLQMNSLKPEDTAVYYCAARTHYFPWPWYVWDYDSWGQGTQVTVSS	low polyreactivity
QGQLVESGGGLVQAGGSRRLSCAASGRIFFYYAMGGYRQGPGQARELVAAISQSGASTYYADSVKGRFTISRDTAKNTVYLQMNSLKPEDTAVYYCNHKPYWYRDYYYWGQGTQVTVSS	high polyreactivity
QVQLVESGGGLVQAGGSLRLSCAASGFTFGYYAMGWYRQAPGKERELVAAINWSGVNTNYADSVKGRFTISRDNEKNTVYLQMNSLKPEDTAVYYCAADAGYDGYGYWGQGTQVTVSS	low polyreactivity
LVQVVESGGGLVQAGCSLRLSCAASGRTFGVYAMGWYRQAPGKEWELVASISRSGGSTYYADSLKGRFTISRDNAKNTVYLQMNSLIPEDTAVYYCAAVYKRGMDYWGQGTQVTVSS	high polyreactivity
QVQLVESGGALVQAGGSLRLSCSASGSIFHGYIMGWYRQAPGKERELVAAITTGGSTNYADSVKGRFTISRDNAKNTVYLQMNSLKPEDTAVYDCATDPYVDPSRDYLELGGYWGQGTQVTVSS	low polyreactivity
QVQLVESGGGLVQAVGSLRLSCAASGSTFGEYAMGWYRQAPGKERELVAVITSDDNTYYADSVKGRFTISRDNAKNTVYLQMNSLKPEDTAVYYCATDDRRRFKYWGQGTQVTVSS	high polyreactivity
QDQLVESGGGLVQAGGSLRLSCAASGSTFAGNGMGWYRQAPGKERELVAGIDVTGGSTYYADSVKGRFTISRDNAKNTVYLQMNSLKPEDTAVYFCNARYVYHSSFAGFDYWGQGTQVTVSS	low polyreactivity
QVQLVESGGGLVQAGGSLRLSCPASGINFIFYAMAWYREAPGKERELVATIRRSGSTYYADSVKGRFTISRDNAKNTVYLQMNSLKPEDTAVYYCNARYPYSYGDYWGQGTQVTVSS	high polyreactivity
QVQLVESGGGLVQAGGSLRLSCAASGFTIWWYAMRWYRQATGKERELVATITSGGRTYYADSVKGRFTISRDNAKNTDYLQMNSLKPEDTAVYYCAAESEVGYVYDPMYYWGQGTQVTVSS	high polyreactivity
QVQLVESGGGLVQAGGSLRLSCAASGSILYYYAMGWYRQAPGKERELVAAISWSGASTYYADSVKGRFTISRDNAKNTVYLQMNSLIPEDTAVYYCNADYTRDRYVANRYYYWGQGTQVTVSS	high polyreactivity
QVQLVESGGGLVQAGGSLRLSCAASGRIFTYNAMGWSRQAPGKERELVAAISSSGGSTYYADSVKGRFTISRDIAKYTVYLHMNSLKPEDTAVYYCAADDAGFWYYFYGRYVTFDYWGQGTQVTVSS	low polyreactivity
QVQLVESGGGLVQAGGSLRLSCAASGSIFYENTMGWYRQAPGKEREFVAAISRSGGSTYYADSEKGRFTISRDNAKNTVYLQMNSLKPEDTAVYYCAAKSRRYHHEYYYWGQGTQVTVSS	high polyreactivity
QVQLVESGGGLVQAGGSLRLSCAASGSIFSPNAMGWYRQAPGKERELVAAITRGGSTYYADSVKGRFTISRDNAKKTVYLQMNSLKPEDTAVYYCAKRSKQFSTQYLYGYWGQGTQVTVSS	low polyreactivity
QVQLVESGGGLVQAGGSLRLSCAASGFIFIRYAMGWYRQAPGKERELVAAISASGVRTYYADSVKGRFTISRDNAKNTVYLQMNSLKPEDTAVYDCAVRSAWVYGIGRYYWGQGTQVTVSS	high polyreactivity
QVQLVESGGVLVQAGGSLRLSCAASGRTMDPYTMGGYRQAHGKERELVAAITSSGGRTTYADSVKGRFTISRDNAKNYVYLQMNSLKPEDTAVYYCAKKFRPGYRSQYLRYSWGQGTQVTVSS	low polyreactivity
QVQRVESGGGIVQARGSLRLSCAASGRIFKTNAMRCYRQSRGKERELVAAISSSGGSTYYADSVKGRFTISRDNAKNTVDLQRNSLNPEDTAVYYCAADGRTKGYDSLGQGTQVTVSS	high polyreactivity
QVQLVESGGRLVQAGGSLRLSCAASGIIFPYNTMGWYRQSPGKERELVASIDDGGSTNYADSVKGRFTISRDNAKNTVYLQMNSLKPEDTAVYYCNADLFFIYVRQPGYDYWGQGTQVTVSS	low polyreactivity
QVQLVESGGGLVQAGGSLRLSCAASGIIFTYYAMGWYRQAPGKERELVAAISYRGGSTNYADSVKGRFTISRDNAKNTVYLQMNSLKPEDTAVYYCAAKSYWKRFRVLYDYWGQGTQVTVSS	high polyreactivity
QVQLVESGGGLVQAVGSLRLSCAASGFTFRGYDMRSYRQAPGKQRELVAGITWGDDSTYYADSVKRRFTISRDKAKNTGYLQMNILKPEDTAVYYCAAEYVFHDVLWWIYGYWRQGTQVTVSS	high polyreactivity
QVQLVESGGGLVQAGGSLRLSCAASGFIFYRYAMGWYRQAPGKERELVAAISSSGGSTYYADSVKGRFTISRDNAKNTVYLQMNSLKPEDTAVYYCNKRPQQYSPGYDYWGQGTQVTVSS	high polyreactivity

Sequence	polyreactivity (PSR sort gate)
QVQLVESGGGLVQAGGSLRLSCSASGGTFITNAMGWYRQAPGKERELVAAITSGGRTTYADSVKGRFTISRDNAKNTVYLQMNSLKPEDTAVYYCAADHVYSYTYNFDYWGQGTQVTVSS	low polyreactivity
QVQLVESGGGLVQAGGSLRLSCAASGITFKWYAMGWYRQAPGKERELVAAISWSTGSTYYADSVKGRFTISRDNAKNTVYLPMNSLKPEDTAVYYCAARVKRPQTGYDRRYGYWGQGTQVTVSS	high polyreactivity
QVQLVESGGGLVQAGGSLRLSCAASGFTFGNNGMGWYRQAPGKERELVATISWSGGSTYADSVKGRFTISRDNAKNTVDLQMNSLKPEDTAVYYCAARYFVYYLEVDYWGQGTQVTVSS	low polyreactivity
QVQLVESGGGLVQAGGSLRLSCAGSGFIFNVYAMGWYRQAPGKARELVAAISRSGGSTYYADSVKGRFTISRDNAKNTVYLQLNSLKPEDTAVYYCNARTPPSYYDMGYWGQGTQVTVSS	high polyreactivity
HVQLVESGGGLVQAGGSLRLSCAASGFTFGWNDMGWYRQAPGKERELVAAITWSGGSTYYADSVKGRFTISRDNAKNTVYLQMNSLKPEDTAVYYCAAVVSDYVWRYEYWGQGTQVTVSS	low polyreactivity
QVQLVESGGGLVQAGGSLRLSCAASGSIFYYYVMGWYRQAPGKERELVAAISSGGGTNYADSVKGRFTISRDNAKNTVYLQMNSLKPEDTAVYYCANASAYGLANDYDYWGQGTQVTVSS	low polyreactivity
QFQLVESGGGLVQAGGSLRLSCAASGRSFNRNAMGWYRQAPGKERELVAAISRSGTRTYYADSVKGRFTISRDNAKNTVYLQMNSLKPEDTAVYYCNALRVDGGDYWGQGTQVTVSS	high polyreactivity
QVQLEESGRGLVQAGGSLRLSCAASGSISGYYAMGWYRQAPGKERELVAVITSSGTSTYYADSVKGRFTISRDNAKNTVYLQMNSLKPEDTAVYDCWGQGTQVTVSS	low polyreactivity
QVQLVESGGGLVQAGGSLRLSCAASGLTFRRYDMGWNRQAPGKEREFVAAITWSTGSTYYADSVKGRFTISRDNAKNTDYLPMNSLKPEDTAVYYCAARSGYFYRYYKYDYWGQGTQVTVSS	high polyreactivity
QVQLVESGGGLVQAGGSLRLSSAASGNIFTYNAMGWYRPARGTERELVAAISSGGSTNYADSVKGRFTISRHNAKNTVYLQLNSLKPEDTAVYYCAADLTISYSQEYYYWGQGTQETVSS	low polyreactivity
QVQLVESGVGLVQAGGSLRLSCAASGRIFTSNAMGWYRQAPGKERELVAAIHRGGSTYYADSVKGRFTISRDNAKNTVYLQMNSLKPEDTAVYYCNAYRKSARSGGHYDYWGQGTQVTVSS	low polyreactivity
QVQLVESGGGLVQAGGSLRLSCAASGRIFSYYAMGWYRQAPGKERELVATISGSGGSTYYADSVKGRFTISRDNAKNTVFLQMNSLKPEDTAVYYCAATGFIFRGRVRAIPRRYNYWGQGTQVTVSS	high polyreactivity
QVQLQESGGGLVQAGGSLRLSCAASGSIFDGFNMGWYRQAPGKEREFVAAISYGASTYYADSVKGRFTVSRDNAKNSVYLQMNSLKPEATAVYYCAVYDELYHVLVYWGRGTQVTVSS	low polyreactivity
QVQLVESGGGLVQAGGSLRLSCAASGSIFWYNAKGWYRQAPGKERELVAAINWGGGSTYYADSVKGRFTISRDNAKNTVYLEMNSLTPEDTAVYYCNADQQVDHATVSQRDGYDYWGQGTQVTVSS	low polyreactivity
QVQLVESGGGLVQAGGSLRLSCAASGNIFATYAMGWYRQAPGKERELVAAIRSGGNTNYADSVKGRFTISRDNAKNTVYLQMNSLKPEDTAVYYCNAYKIFYGYIRYNYWGQGTQVTVSS	high polyreactivity
QVQLVESGGGLVQAGGSLRLSCAASGSTFWSYAMGWYRQATGKERELVAAITSGGRTYYADSVKGRFTISRDNAKNTVYLQMNCLKAEDTAVYYCAAEGSVGLYGMIMHYWGQGTQVTVSS	high polyreactivity
QVQLVESGGGLVHAGGSLRLSCAASGFIFWRYAMGWYRQAPGKERELVATITSSGGTTHYADSVKGRFTISRDNAKNTVYLQMNSLKPEDTAVFYCATRNGVGSLFYSRNYWGQGTQVSVSS	high polyreactivity
QVQLVESGRGLVQAGGSLRLSCAASGSTFATYAMGWYRQAPGKERELVAVITRGGRTYYADSVKGRFTISRDNAKNTVYLQMNSLKPEDNAVYYCAAKAYTYYARIGFDYWGQGTQVTVSS	high polyreactivity
QVQLVESGGGLVQAGGSLRLSCAASGITFWTYAMGGYRQAPGKERELVAAISKTVGSTFYADSVKGRFTISRDNAKNTVYLQMNSLKPEDTEVYYCNARRRRTVGWQYNYWGQGTQVTVSS	high polyreactivity
QVQLVESGGGLVQAGGSLRLSCAASGFTIRRNAMGWYRQAPGKERELVAAISDRGGSTYYADSVKGRFTISRDTAKNTVYFQMTSLKPEDTAVYYCAAEPYAGPELDYWGQGTQVTVSS	high polyreactivity
QVQLVESGGGLVQAGGSLRLICAASGRTFTRYAMGWYRQAPGKERELVAAITSGDSTYYADSVKGRFTISRDNAKNTVYLQMNSLKPEDTAVYYCAARTSYGYWYRRRYYYWGQGTQVTVSS	high polyreactivity

From the nanobody polyreactivity screen of Harvey et al. (2022)
